According to paper PMC10267580 (2023):

B1: ELKS1_RBD S868A (domain or fragment)
chain: RKHLEEVLEMKQEALLAAIAEKDANIALLELSSSKKKTQEEVAALKREKDRLVQQLKQQTQNRMKLMADNYEDD
B2: ELKS1_RBD, Rab-binding domain of ELKS1 (residues 849-922) (domain or fragment)
chain: RKHLEEVLEMKQEALLAAISEKDANIALLELSSSKKKTQEEVAALKREKDRLVQQLKQQTQNRMKLMADNYEDD

Legend:
[1] = target: Rab6B^Q72L, GTPase domain (residues 8-176), constitutively active mutant (mouse, UniProt P61294 8-176, Q72L); assay: ITC
[2] = target: Rab6B^Q72L L11E, GTPase domain (mouse, UniProt P61294 8-176, Q72L | L11E); assay: ITC
Chain of Rab6B^Q72L L11E, GTPase domain (P61294 8-176 L11E/Q72L): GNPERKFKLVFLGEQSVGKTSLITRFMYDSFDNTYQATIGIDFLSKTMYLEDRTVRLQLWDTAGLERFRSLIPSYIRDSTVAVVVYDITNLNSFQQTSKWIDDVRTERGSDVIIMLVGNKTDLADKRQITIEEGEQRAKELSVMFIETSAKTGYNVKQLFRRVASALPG

Chain of Rab6B^Q72L, GTPase domain (residues 8-176), constitutively active mutant (P61294 8-176 Q72L): as the sequence (P61294 8-176 L11E/Q72L) above, with E4L counted along it

| Binder | Kd [1] [µM] | Kd [2] [µM] |
| --- | --- | --- |
| B1 | 26 |  |
| B2 |  | > 50 |
